Results on 1 substance are retold here after PMC5156837.

The assay concerns the target GST-TOC34 fusion protein (Arabidopsis thaliana) (UniProt Q38906).
Chain of UniProt Q38906 (Q38906 whole entry, the tested form may be a part): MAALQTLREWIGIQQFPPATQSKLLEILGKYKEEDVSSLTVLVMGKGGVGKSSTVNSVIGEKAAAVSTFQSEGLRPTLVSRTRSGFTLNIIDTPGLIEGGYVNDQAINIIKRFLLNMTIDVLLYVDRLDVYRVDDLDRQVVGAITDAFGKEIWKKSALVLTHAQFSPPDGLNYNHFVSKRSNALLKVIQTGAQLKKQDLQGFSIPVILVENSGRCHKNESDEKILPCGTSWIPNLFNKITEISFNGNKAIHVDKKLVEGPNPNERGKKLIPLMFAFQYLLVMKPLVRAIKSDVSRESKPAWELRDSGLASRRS

“CBL10-cMyc (thrombin-cleaved from GST-CBL10-cMyc) (from UniProt Q7FRS8 1-256)” had a GTPase activity of TOC34 (free phosphate from GTP, 27°C, 30 min) with CBL10 and 5 mM CaCl2 of 0.5 fold.
